From PMC6541444 (Science translational medicine, 2019)

Molecular target: T1, recombinant mouse IL-2Ra (Sino Biological) (mouse, UniProt P01590 22-236)
T1 sequence (looked up): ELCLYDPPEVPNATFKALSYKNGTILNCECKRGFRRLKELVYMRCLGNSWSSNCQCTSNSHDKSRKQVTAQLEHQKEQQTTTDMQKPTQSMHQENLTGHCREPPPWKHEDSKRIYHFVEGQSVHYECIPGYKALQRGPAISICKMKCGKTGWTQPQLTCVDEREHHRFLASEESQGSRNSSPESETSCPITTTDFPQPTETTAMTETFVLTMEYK
Test: ELISA

- binding result: binds
B1: mouse IL-2 (recombinant, unmodified) (ligand, UniProt P04351 21-169, looked up)
chain: APTSSSTSSSTAEAQQQQQQQQQQQQHLEQLLMDLQELLSRMENYRNLKLPRMLTFKFYLPKQATELKDLQCLEDELGPLRHVLDLTQSKSFQLEDAENFISNIRVTVVKLKGSDNTFECQFDDESATVVDFLRRWIAFCQSIISTSPQ
